B1: Huntingtin-interacting protein 1-related protein (other)
chain: MNSIKNVPARVLSRRPGHSLEAEREQFDKTQAISISKAINTQEAPVKEKHARRIILGTHHEKGAFTFWSYAIGLPLPSSSILSWKFCHVLHKVLRDGHPNVLHDCQRYRSNIREIGDLWGHLHDRYGQLVNVYTKLLLTKISFHLKHPQFPAGLEVTDEVLEKAAGTDVNNIFQLTVEMFDYMDCELKLSESVFRQLNTAIAVSQMSSGQCRLAPLIQVIQDCSHLYHYTVKLLFKLHSCLPADTLQGHRDRFHEQFHSLRNFFRRASDMLYFKRLIQIPRLPEGPPNFLRASALAEHIKPVVVIPEEAPEDEEPENLIEISTGPPAGEPVVVADLFDQTFGPPNGSVKDDRDLQIESLKREVEMLRSELEKIKLEAQRYIAQLKSQVNALEGELEEQRKQKQKALVDNEQLRHELAQLRAAQLEGERSQGLREEAERKASATEARYNKLKEKHSELVHVHAELLRKNADTAKQLTVTQQSQEEVARVKEQLAFQVEQVKRESELKLEEKSDQLEKLKRELEAKAGELARAQEALSHTEQSKSELSSRLDTLSAEKDALSGAVRQREADLLAAQSLVRETEAALSREQQRSSQEQGELQGRLAERESQEQGLRQRLLDEQFAVLRGAAAEAAGILQDAVSKLDDPLHLRCTSSPDYLVSRAQEALDAVSTLEEGHAQYLTSLADASALVAALTRFSHLAADTIINGGATSHLAPTDPADRLIDTCRECGARALELMGQLQDQQALRHMQASLVRTPLQGILQLGQELKPKSLDVRQEELGAVVDKEMAATSAAIEDAVRRIEDMMNQARHASSGVKLEVNERILNSCTDLMKAIRLLVTTSTSLQKEIVESGRGAATQQEFYAKNSRWTEGLISASKAVGWGATQLVEAADKVVLHTGKYEELIVCSHEIAASTAQLVAASKVKANKHSPHLSRLQECSRTVNERAANVVASTKSGQEQIEDRDTMDFSGLSLIKLKKQEMETQVRVLELEKTLEAERMRLGELRKQHYVLAGASGSPGEEVAIRPSTAPRSVTTKKPPLAQKPSVAPRQDHQLDKKDGIYPAQLVNY
B2: Heterogeneous nuclear ribonucleoprotein U-like protein 1 (other)
chain: MDVRRLKVNELREELQRRGLDTRGLKAELAERLQAALEAEEPDDERELDADDEPGRPGHINEEVETEGGSELEGTAQPPPPGLQPHAEPGGYSGPDGHYAMDNITRQNQFYDTQVIKQENESGYERRPLEMEQQQAYRPEMKTEMKQGAPTSFLPPEASQLKPDRQQFQSRKRPYEENRGRGYFEHREDRRGRSPQPPAEEDEDDFDDTLVAIDTYNCDLHFKVARDRSSGYPLTIEGFAYLWSGARASYGVRRGRVCFEMKINEEISVKHLPSTEPDPHVVRIGWSLDSCSTQLGEEPFSYGYGGTGKKSTNSRFENYGDKFAENDVIGCFADFECGNDVELSFTKNGKWMGIAFRIQKEALGGQALYPHVLVKNCAVEFNFGQRAEPYCSVLPGFTFIQHLPLSERIRGTVGPKSKAECEILMMVGLPAAGKTTWAIKHAASNPSKKYNILGTNAIMDKMRVMGLRRQRNYAGRWDVLIQQATQCLNRLIQIAARKKRNYILDQTNVYGSAQRRKMRPFEGFQRKAIVICPTDEDLKDRTIKRTDEEGKDVPDHAVLEMKANFTLPDVGDFLDEVLFIELQREEADKLVRQYNEEGRKAGPPPEKRFDNRGGGGFRGRGGGGGFQRYENRGPPGGNRGGFQNRGGGSGGGGNYRGGFNRSGGGGYSQNRWGNNNRDNNNSNNRGSYNRAPQQQPPPQQPPPPQPPPQQPPPPPSYSPARNPPGASTYNKNSNIPGSSANTSTPTVSSYSPPQPSYSQPPYNQGGYSQGYTAPPPPPPPPPAYNYGSYGGYNPAPYTPPPPPTAQTYPQPSYNQYQQYAQQWNQYYQNQGQWPPYYGNYDYGSYSGNTQGGTSTQ
B3: Structural maintenance of chromosomes protein 3 (other)
chain: MYIKQVIIQGFRSYRDQTIVDPFSSKHNVIVGRNGSGKSNFFYAIQFVLSDEFSHLRPEQRLALLHEGTGPRVISAFVEIIFDNSDNRLPIDKEEVSLRRVIGAKKDQYFLDKKMVTKNDVMNLLESAGFSRSNPYYIVKQGKINQMATAPDSQRLKLLREVAGTRVYDERKEESISLMKETEGKREKINELLKYIEERLHTLEEEKEELAQYQKWDKMRRALEYTIYNQELNETRAKLDELSAKRETSGEKSRQLRDAQQDARDKMEDIERQVRELKTKISAMKEEKEQLSAERQEQIKQRTKLELKAKDLQDELAGNSEQRKRLLKERQKLLEKIEEKQKELAETEPKFNSVKEKEERGIARLAQATQERTDLYAKQGRGSQFTSKEERDKWIKKELKSLDQAINDKKRQIAAIHKDLEDTEANKEKNLEQYNKLDQDLNEVKARVEELDRKYYEVKNKKDELQSERNYLWREENAEQQALAAKREDLEKKQQLLRAATGKAILNGIDSINKVLDHFRRKGINQHVQNGYHGIVMNNFECEPAFYTCVEVTAGNRLFYHIVDSDEVSTKILMEFNKMNLPGEVTFLPLNKLDVRDTAYPETNDAIPMISKLRYNPRFDKAFKHVFGKTLICRSMEVSTQLARAFTMDCITLEGDQVSHRGALTGGYYDTRKSRLELQKDVRKAEEELGELEAKLNENLRRNIERINNEIDQLMNQMQQIETQQRKFKASRDSILSEMKMLKEKRQQSEKTFMPKQRSLQSLEASLHAMESTRESLKAELGTDLLSQLSLEDQKRVDALNDEIRQLQQENRQLLNERIKLEGIITRVETYLNENLRKRLDQVEQELNELRETEGGTVLTATTSELEAINKRVKDTMARSEDLDNSIDKTEAGIKELQKSMERWKNMEKEHMDAINHDTKELEKMTNRQGMLLKKKEECMKKIRELGSLPQEAFEKYQTLSLKQLFRKLEQCNTELKKYSHVNKKALDQFVNFSEQKEKLIKRQEELDRGYKSIMELMNVLELRKYEAIQLTFKQVSKNFSEVFQKLVPGGKATLVMKKGDVEGSQSQDEGEGSGESERGSGSQSSVPSVDQFTGVGIRVSFTGKQGEMREMQQLSGGQKSLVALALIFAIQKCDPAPFYLFDEIDQALDAQHRKAVSDMIMELAVHAQFITTTFRPELLESADKFYGVKFRNKVSHIDVITAEMAKDFVEDDTTHG
B4: Clustered mitochondria protein homolog (other)
chain: MLLNGDCPESLKKEAAAAEPPRENGLDEAGPGDETTGQEVIVIQDTGFSVKILAPGIEPFSLQVSPQEMVQEIHQVLMDREDTCHRTCFSLHLDGNVLDHFSELRSVEGLQEGSVLRVVEEPYTVREARIHVRHVRDLLKSLDPSDAFNGVDCNSLSFLSVFTDGDLGDSGKRKKGLEMDPIDCTPPEYILPGSRERPLCPLQPQNRDWKPLQCLKVLTMSGWNPPPGNRKMHGDLMYLFVITAEDRQVSITASTRGFYLNQSTAYHFNPKPASPRFLSHSLVELLNQISPTFKKNFAVLQKKRVQRHPFERIATPFQVYSWTAPQAEHAMDCVRAEDAYTSRLGYEEHIPGQTRDWNEELQTTRELPRKNLPERLLRERAIFKVHSDFTAAATRGAMAVIDGNVMAINPSEETKMQMFIWNNIFFSLGFDVRDHYKDFGGDVAAYVAPTNDLNGVRTYNAVDVEGLYTLGTVVVDYRGYRVTAQSIIPGILERDQEQSVIYGSIDFGKTVVSHPRYLELLERTSRPLKILRHQVLNDRDEEVELCSSVECKGIIGNDGRHYILDLLRTFPPDLNFLPVPGEELPEECARAGFPRAHRHKLCCLRQELVDAFVEHRYLLFMKLAALQLMQQNASQLETPSSLENGGPSSLESKSEDPPGQEAGSEEEGSSASGLAKVKELAETIAADDGTDPRSREVIRNACKAVGSISSTAFDIRFNPDIFSPGVRFPESCQDEVRDQKQLLKDAAAFLLSCQIPGLVKDCMEHAVLPVDGATLAEVMRQRGINMRYLGKVLELVLRSPARHQLDHVFKIGIGELITRSAKHIFKTYLQGVELSGLSAAISHFLNCFLSSYPNPVAHLPADELVSKKRNKRRKNRPPGAADNTAWAVMTPQELWKNICQEAKNYFDFDLECETVDQAVETYGLQKITLLREISLKTGIQVLLKEYSFDSRHKPAFTEEDVLNIFPVVKHVNPKASDAFHFFQSGQAKVQQGFLKEGCELINEALNLFNNVYGAMHVETCACLRLLARLHYIMGDYAEALSNQQKAVLMSERVMGTEHPNTIQEYMHLALYCFASSQLSTALSLLYRARYLMLLVFGEDHPEMALLDNNIGLVLHGVMEYDLSLRFLENALAVSTKYHGPKALKVALSHHLVARVYESKAEFRSALQHEKEGYTIYKTQLGEDHEKTKESSEYLKCLTQQAVALQRTMNEIYRNGSSANIPPLKFTAPSMASVLEQLNVINGILFIPLSQKDLENLKAEVARRHQLQEASRNRDRAEEPMATEPAPAGAPGDLGSQPPAAKDPSPSVQG
B5: Structural maintenance of chromosomes protein 1A (other)
chain: MGFLKLIEIENFKSYKGRQIIGPFQRFTAIIGPNGSGKSNLMDAISFVLGEKTSNLRVKTLRDLIHGAPVGKPAANRAFVSMVYSEEGAEDRTFARVIVGGSSEYKINNKVVQLHEYSEELEKLGILIKARNFLVFQGAVESIAMKNPKERTALFEEISRSGELAQEYDKRKKEMVKAEEDTQFNYHRKKNIAAERKEAKQEKEEADRYQRLKDEVVRAQVQLQLFKLYHNEVEIEKLNKELASKNKEIEKDKKRMDKVEDELKEKKKELGKMMREQQQIEKEIKEKDSELNQKRPQYIKAKENTSHKIKKLEAAKKSLQNAQKHYKKRKGDMDELEKEMLSVEKARQEFEERMEEESQSQGRDLTLEENQVKKYHRLKEEASKRAATLAQELEKFNRDQKADQDRLDLEERKKVETEAKIKQKLREIEENQKRIEKLEEYITTSKQSLEEQKKLEGELTEEVEMAKRRIDEINKELNQVMEQLGDARIDRQESSRQQRKAEIMESIKRLYPGSVYGRLIDLCQPTQKKYQIAVTKVLGKNMDAIIVDSEKTGRDCIQYIKEQRGEPETFLPLDYLEVKPTDEKLRELKGAKLVIDVIRYEPPHIKKALQYACGNALVCDNVEDARRIAFGGHQRHKTVALDGTLFQKSGVISGGASDLKAKARRWDEKAVDKLKEKKERLTEELKEQMKAKRKEAELRQVQSQAHGLQMRLKYSQSDLEQTKTRHLALNLQEKSKLESELANFGPRINDIKRIIQSREREMKDLKEKMNQVEDEVFEEFCREIGVRNIREFEEEKVKRQNEIAKKRLEFENQKTRLGIQLDFEKNQLKEDQDKVHMWEQTVKKDENEIEKLKKEEQRHMKIIDETMAQLQDLKNQHLAKKSEVNDKNHEMEEIRKKLGGANKEMTHLQKEVTAIETKLEQKRSDRHNLLQACKMQDIKLPLSKGTMDDISQEEGSSQGEDSVSGSQRISSIYAREALIEIDYGDLCEDLKDAQAEEEIKQEMNTLQQKLNEQQSVLQRIAAPNMKAMEKLESVRDKFQETSDEFEAARKRAKKAKQAFEQIKKERFDRFNACFESVATNIDEIYKALSRNSSAQAFLGPENPEEPYLDGINYNCVAPGKRFRPMDNLSGGEKTVAALALLFAIHSYKPAPFFVLDEIDAALDNTNIGKVANYIKEQSTCNFQAIVISLKEEFYTKAESLIGVYPEQGDCVISKVLTFDLTKYPDANPNPNEQ

Target: T1, HA-PTEN (human, UniProt P60484 1-403)
T1 construct: Expressed in DU145 cells and immunoprecipitated with anti-PTEN antibody for mass spectrometry; also called exogenous PTEN; pcDNA3-HA-PTEN; not shown: HA tag
Assay: anti-PTEN immunoprecipitation from DU145 cells transfected with HA-PTEN, SDS-PAGE, mass-spectrometric peptide sequencing of the bands (association in the precipitate)
Excerpt: FIG. 2A is a Western blot. Lysates from DU145 cells transfected with HA-PTEN were immunoprecipitated with an anti-PTEN antibody followed by mass-spectrometric peptide sequencing. WWP1 and NEDD4-1 were identified.
In order to identify the E3 ligases that induce PTEN atypical K27-linked poly-ubiquitination, exogenous PTEN was immunoprecipitated from DU145 cells, followed by identification of the proteins that interacted with PTEN by mass spectrometry (FIG. 2A; FIG. 18).

Binder	binding result
B1	binds
B2	binds
B3	binds
B4	binds
B5	binds
